Experimental data from patent EP4703474A1, “ANTI-LRRC15 ANTIBODY” (priority 2023, dated 2024).
Residue numbers refer to the chain shown, from its start.

B1: H02L01-PBD (conjugate)
heavy: EVQLVESGGGLVQPGGSLRLSCAASGFTFRDYYMAWVRQAPGKGLEWVSSIGFDESRTYYADSVKGRFTISRDDSKNTLYLQMNSLRAEDTAVYYCARHGVSYYSGDNWFAYWGQGTLVTVSSASTKGPSVFPLAPSSKSTSGGTAALGCLVKDYFPEPVTVSWNSGALTSGVHTFPAVLQSSGLYSLSSVVTVPSSSLGTQTYICNVNHKPSNTKVDKKVEPKSCDKTHTCPPCPAPEAAGGPSVFLFPPKPKDTLMISRTPEVTCVVVDVSHEDPEVKFNWYVDGVEVHNAKTKPREEQYNSTYRVVSVLTVLHQDWLNGKEYKCKVSNKALAAPIEKTISKAKGQPREPQVYTLPPSREEMTKNQVSLTCLVKGFYPSDIAVEWESNGQPENNYKTTPPVLDSDGSFFLYSKLTVDKSRWQQGNVFSCSVMHEALHNHYTQKSLSLSPGK
light: DIQMTQSPSSLSASVGDRVTITCKSSQGLLYSGDQKNYLAWYQQKPGKAPKLLIYWASTRQSGVPSRFSGSGSGTDFTLTISSLQPEDFATYYCQQYYDPPYTFGQGTKVEIKRTVAAPSVFIFPPSDEQLKSGTASVVCLLNNFYPREAKVQWKVDNALQSGNSQESVTEQDSKDSTYSLSSTLTLSKADYEKHKVYACEVTHQGLSSPVTKSFNRGEC
B2: H02L01-V1-PBD (conjugate)
heavy: B1 heavy with Y103K
light: B1 light

Tests used:
[1] = system: Triple-negative breast carcinoma cell line HCC1806; assay: In vivo antitumor effect, HCC1806 subcutaneous transplant model; settings: 0.4 mg/kg, tail vein, on Day 7, female SCID mice
Procedure: (§1) The antitumor effects of the antibody-drug conjugates were evaluated by using animal models in which cells of a human tumor cell line had been transplanted into immunodeficient mice, or cells of a mouse tumor cell line had been transplanted into immunocompetent mice. 4 to 6 Week-old SCID mice (CB17/Icr-Prkdc[scid]/CrlCrlj, Jackson Laboratory Japan, Inc.), NSG mice (NOD.Cg-Prkdcscid Il2rgtm1Wjl/SzJ, Jackson Laboratory Japan, Inc.), or B6J mice (C57BL/6J, Jackson Laboratory Japan, Inc.) were habituated for 3 days or more under SPF conditions before experimental use. The mice were fed with sterilized solid feed and given sterilized tap water. The major and minor diameters of the transplanted tumors were measured twice a week with an electronic digital caliper (Mitutoyo Corporation), and the estimated tumor volume was calculated using the following formula. Estimated tumor volume (mm^3) = 1/2 × major diameter (mm) × [minor diameter (mm)]^2 All antibody-drug conjugates were diluted with ABS and administered into the tail vein at doses shown in each Example. In addition, ABS (vehicle) or control hIgG-PBD prepared in Reference Example 4 was administered as the control group, in a similar manner. 5 to 6 Mice were used per group in the experiment. To analyze the LRRC15 expression in mouse tumor models, immunohistochemical staining of LRRC15 was performed. […]

[2] = system: LRRC15-negative human lung carcinoma cell line HCC827; assay: In vivo antitumor effect, HCC827 subcutaneous transplant model; settings: 0.4 mg/kg, tail vein, on Day 10, female SCID mice, huM25-MMAE at 0.4 mg/kg or 3.6 mg/kg
Procedure: The antitumor effects of the antibody-drug conjugates were evaluated by using animal models in which cells of the human tumor cell line had been transplanted into immunodeficient mice. 4 to 6 Week-old SCID mice (CB17/Icr-Prkdc[scid]/CrlCrlj, Jackson Laboratory Japan, Inc.) were habituated for 3 days or more under SPF conditions before experimental use. The mice were fed with sterilized solid feed (FR-2, Funabashi Farms Co., Ltd.) and given sterilized tap water (prepared by adding a solution of 5 to 15 ppm sodium hypochlorite). The major and minor diameters of the transplanted tumors were measured twice a week with an electronic digital caliper ([…] Corporation), and the estimated tumor volume was calculated using the following formula. Estimated tumor volume (mm^3) = 1/2 × major diameter (mm) × [minor diameter (mm)]^2 All antibody-drug conjugates were diluted with ABS and administered into the tail vein at doses shown in each Example. In addition, ABS (vehicle) or control hIgG-PBD prepared in Reference Example 4 was administered as the control group, in a similar manner. 5 to 6 Mice were used per group in the experiment. […]

[3] = system: LRRC15-positive human glioblastoma cell line U118MG; assay: In vivo antitumor effect, U118MG subcutaneous transplant model; settings: 0.4 mg/kg, tail vein, on Day 17, female SCID mice
Procedure: as §1, with “experiment.” for “experiment. To analyze the LRRC15 expression in mouse tumor models, immunohistochemical staining of LRRC15 was performed.”

Row | Molecule | antitumor effect (estimated tumor volume) [1] | antitumor effect (estimated tumor volume) [2] | antitumor effect (estimated tumor volume) [3]
1 | B1 | antitumor activity higher than that of the vehicle | antitumor activity higher than that of the vehicle, the control hIgG-PBD, and huM25-MMAE | antitumor activity higher than that of the vehicle and the control hIgG-PBD
2 | B2 | antitumor activity higher than that of the vehicle | antitumor activity higher than that of the vehicle, the control hIgG-PBD, and huM25-MMAE | antitumor activity higher than that of the vehicle and the control hIgG-PBD
